The results in this text go back to IntAct's records for PubMed 22424946.

To fix the notation:
B1: Ras-related GTP-binding protein D (Homo sapiens), Q9NQL2 (parent)
chain: MSQVLGKPQPQDEDDAEEEEEEDELVGLADYGDGPDSSDADPDSGTEEGVLDFSDPFSTEVKPRILLMGLRRSGKSSIQKVVFHKMSPNETLFLESTNKICREDVSNSSFVNFQIWDFPGQIDFFDPTFDYEMIFRGTGALIFVIDSQDDYMEALARLHLTVTRAYKVNTDINFEVFIHKVDGLSDDHKIETQRDIHQRANDDLADAGLEKIHLSFYLTSIYDHSIFEAFSKVVQKLIPQLPTLENLLNIFISNSGIEKAFLFDVVSKIYIATDSTPVDMQTYELCCDMIDVVIDISCIYGLKEDGAGTPYDKESTAIIKLNNTTVLYLKEVTKFLALVCFVREESFERKGLIDYNFHCFRKAIHEVFEVRMKVVKSRKVQNRLQKKKRATPNGTPRVLL

The variants in this assay derive from B1. The conditions noted are these: with sylc_human LARS1, Q9P2J5.
Sequence of sylc_human LARS1, Q9P2J5 (Q9P2J5 whole entry, looked up): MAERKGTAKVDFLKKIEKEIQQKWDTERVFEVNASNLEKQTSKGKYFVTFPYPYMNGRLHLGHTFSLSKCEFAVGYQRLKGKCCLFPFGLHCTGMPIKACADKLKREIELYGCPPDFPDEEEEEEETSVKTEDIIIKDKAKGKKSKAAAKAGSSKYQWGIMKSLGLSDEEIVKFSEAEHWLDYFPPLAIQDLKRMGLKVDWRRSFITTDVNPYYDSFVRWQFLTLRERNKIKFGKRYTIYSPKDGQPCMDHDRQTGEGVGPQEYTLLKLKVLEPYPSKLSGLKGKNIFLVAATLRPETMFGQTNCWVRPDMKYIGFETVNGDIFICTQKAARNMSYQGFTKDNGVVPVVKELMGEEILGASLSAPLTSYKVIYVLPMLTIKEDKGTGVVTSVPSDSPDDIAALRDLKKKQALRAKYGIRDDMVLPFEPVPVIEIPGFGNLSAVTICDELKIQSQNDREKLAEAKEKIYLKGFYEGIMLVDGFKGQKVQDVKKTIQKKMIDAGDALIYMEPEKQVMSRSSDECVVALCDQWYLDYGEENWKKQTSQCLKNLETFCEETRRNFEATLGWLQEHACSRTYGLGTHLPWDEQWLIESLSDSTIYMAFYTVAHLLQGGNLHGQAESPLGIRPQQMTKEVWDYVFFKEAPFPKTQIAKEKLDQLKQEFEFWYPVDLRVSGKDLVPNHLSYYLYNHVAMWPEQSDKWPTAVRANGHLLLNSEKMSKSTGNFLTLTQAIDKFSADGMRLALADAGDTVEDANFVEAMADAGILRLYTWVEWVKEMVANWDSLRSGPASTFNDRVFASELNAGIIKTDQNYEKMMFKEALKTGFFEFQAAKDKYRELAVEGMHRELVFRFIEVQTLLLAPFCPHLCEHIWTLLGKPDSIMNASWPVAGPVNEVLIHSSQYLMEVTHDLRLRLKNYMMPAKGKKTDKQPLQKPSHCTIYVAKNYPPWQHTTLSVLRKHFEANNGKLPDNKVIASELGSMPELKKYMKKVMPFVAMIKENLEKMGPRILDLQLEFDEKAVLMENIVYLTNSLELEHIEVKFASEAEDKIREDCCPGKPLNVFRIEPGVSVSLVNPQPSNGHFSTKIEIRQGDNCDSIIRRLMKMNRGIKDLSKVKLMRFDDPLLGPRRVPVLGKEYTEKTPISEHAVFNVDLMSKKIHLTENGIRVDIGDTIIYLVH
Turning to MSQVLGKPQPQDEDDAEEEEEEDELVGLADYGDGPDSSDADPDSGTEEGVLDFSDPFSTEVKPRILLMGLRRSGKSSIQKVVFHKMSPNETLFLESTNKICREDVSNSSFVNFQIWDFPGLIDFFDPTFDYEMIFRGTGALIFVIDSQDDYMEALARLHLTVTRAYKVNTDINFEVFIHKVDGLSDDHKIETQRDIHQRANDDLADAGLEKIHLSFYLTSIYDHSIFEAFSKVVQKLIPQLPTLENLLNIFISNSGIEKAFLFDVVSKIYIATDSTPVDMQTYELCCDMIDVVIDISCIYGLKEDGAGTPYDKESTAIIKLNNTTVLYLKEVTKFLALVCFVREESFERKGLIDYNFHCFRKAIHEVFEVRMKVVKSRKVQNRLQKKKRATPNGTPRVLL [Q121L], the “effect of a mutation on the interaction” value is listed as “increasing interaction strength”.

MSQVLGKPQPQDEDDAEEEEEEDELVGLADYGDGPDSSDADPDSGTEEGVLDFSDPFSTEVKPRILLMGLRRSGKSLIQKVVFHKMSPNETLFLESTNKICREDVSNSSFVNFQIWDFPGQIDFFDPTFDYEMIFRGTGALIFVIDSQDDYMEALARLHLTVTRAYKVNTDINFEVFIHKVDGLSDDHKIETQRDIHQRANDDLADAGLEKIHLSFYLTSIYDHSIFEAFSKVVQKLIPQLPTLENLLNIFISNSGIEKAFLFDVVSKIYIATDSTPVDMQTYELCCDMIDVVIDISCIYGLKEDGAGTPYDKESTAIIKLNNTTVLYLKEVTKFLALVCFVREESFERKGLIDYNFHCFRKAIHEVFEVRMKVVKSRKVQNRLQKKKRATPNGTPRVLL [S77L]: the “effect of a mutation on the interaction” value is “decreasing interaction strength”.
